Common to all, as to assay: enzyme inhibition assay
Assay [1] addresses T1, human plasma Kallikrein (human, UniProt P03952 20-638, limits assumed).
T1 construct: also called hPK; human PK

Assay [2] deals with T2, Monkey plasma Kallikrein (monkey (Macaca mulatta), UniProt A0A1D5Q7U7 391-638).
T2 construct: domain: catalytic domain; also called mPK

Assay [3] deals with T3, Rat plasma Kallikrein (rat, UniProt P14272 391-638, limits assumed).
T3 construct: domain: catalytic domain; also called rPK; rat PK
T3 sequence (P14272 391-638 limits assumed): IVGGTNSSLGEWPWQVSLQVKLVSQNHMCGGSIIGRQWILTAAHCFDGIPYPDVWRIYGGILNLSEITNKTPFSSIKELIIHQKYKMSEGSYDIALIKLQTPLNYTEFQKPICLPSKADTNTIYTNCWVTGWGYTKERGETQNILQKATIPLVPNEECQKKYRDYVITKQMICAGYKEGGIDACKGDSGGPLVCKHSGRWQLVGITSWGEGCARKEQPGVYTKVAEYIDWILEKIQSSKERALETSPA

Assay [4] concerns the target Human plasmin (human, UniProt P00747 97-810).
Assay [5] deals with T1, human plasma Kallikrein. This is another data set of the same source.
For assay [6], the target named is T4, Human factor XIa (human, UniProt P03951 19-625).
T4 construct: also called hfXIa

For assay [7], the target named is T1, human plasma Kallikrein. The source holds these as a separate data set.

Read-outs that look alike come from different tables or passages of the source. Numbered stars: 1 amine (or outer) side, 2 acyl side, 3 side chain; on linkers, the order of the positions; unused ones are H or OH. Bridge positions count the residues as written; N and C are the ends. Ends that are not written are not given here. TBMB = c1c(C[*:1])cc(C[*:3])cc1C[*:2]

T1 sequence (P03952 20-638 limits assumed): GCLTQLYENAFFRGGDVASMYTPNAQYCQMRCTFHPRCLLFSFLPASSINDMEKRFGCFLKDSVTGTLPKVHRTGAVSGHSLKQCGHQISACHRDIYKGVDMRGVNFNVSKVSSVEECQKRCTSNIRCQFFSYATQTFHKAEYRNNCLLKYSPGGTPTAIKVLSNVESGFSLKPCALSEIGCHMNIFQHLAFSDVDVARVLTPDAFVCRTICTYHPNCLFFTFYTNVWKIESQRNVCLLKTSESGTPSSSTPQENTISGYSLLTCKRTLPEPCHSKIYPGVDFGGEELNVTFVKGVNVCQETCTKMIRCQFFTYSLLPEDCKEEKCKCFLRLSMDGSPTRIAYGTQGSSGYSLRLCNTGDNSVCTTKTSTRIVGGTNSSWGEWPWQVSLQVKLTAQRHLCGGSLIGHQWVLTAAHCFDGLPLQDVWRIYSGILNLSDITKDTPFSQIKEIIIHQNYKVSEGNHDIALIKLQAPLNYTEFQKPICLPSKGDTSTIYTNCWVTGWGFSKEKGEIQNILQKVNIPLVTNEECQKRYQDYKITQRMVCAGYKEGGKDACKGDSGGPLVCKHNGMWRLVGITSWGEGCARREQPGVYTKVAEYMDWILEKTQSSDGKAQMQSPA
T2 sequence (A0A1D5Q7U7 entry or part of it): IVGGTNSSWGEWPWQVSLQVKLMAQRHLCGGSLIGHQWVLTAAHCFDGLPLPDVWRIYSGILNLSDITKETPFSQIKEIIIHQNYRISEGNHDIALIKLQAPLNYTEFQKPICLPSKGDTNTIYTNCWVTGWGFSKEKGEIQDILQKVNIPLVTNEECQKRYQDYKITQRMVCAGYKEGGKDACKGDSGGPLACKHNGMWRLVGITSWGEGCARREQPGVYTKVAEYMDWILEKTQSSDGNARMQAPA
Sequence of Human plasmin (P00747 97-810 limits assumed): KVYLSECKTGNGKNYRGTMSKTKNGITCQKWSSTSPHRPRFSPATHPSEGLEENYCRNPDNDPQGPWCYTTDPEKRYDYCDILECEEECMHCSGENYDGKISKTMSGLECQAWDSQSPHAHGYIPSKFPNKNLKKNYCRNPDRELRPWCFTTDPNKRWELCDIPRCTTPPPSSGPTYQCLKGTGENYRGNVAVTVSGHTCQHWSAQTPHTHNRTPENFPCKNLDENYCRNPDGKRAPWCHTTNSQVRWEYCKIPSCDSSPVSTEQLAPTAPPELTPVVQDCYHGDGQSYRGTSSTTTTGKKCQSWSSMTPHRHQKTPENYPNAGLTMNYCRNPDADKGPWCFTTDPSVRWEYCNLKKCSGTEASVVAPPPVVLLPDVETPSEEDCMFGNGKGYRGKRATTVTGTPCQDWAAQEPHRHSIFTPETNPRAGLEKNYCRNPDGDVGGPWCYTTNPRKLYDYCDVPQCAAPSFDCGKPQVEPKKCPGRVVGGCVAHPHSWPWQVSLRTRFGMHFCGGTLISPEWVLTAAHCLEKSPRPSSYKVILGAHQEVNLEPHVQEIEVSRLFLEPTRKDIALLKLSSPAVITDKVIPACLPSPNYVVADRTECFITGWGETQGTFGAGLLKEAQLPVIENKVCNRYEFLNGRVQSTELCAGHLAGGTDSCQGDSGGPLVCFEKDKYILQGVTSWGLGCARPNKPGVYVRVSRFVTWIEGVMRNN

Turning to ACTYPYKCLHQNLCA (linker 2-8-14 via TBMB, also called PK112) [2A10], the Ki in assay [1] was found to be 18 nM; in assay [2], 23 nM; in assay [3], 66 nM; in assay [4] it was 30 µM; in assay [5] it was 4.98 nM.

With ACFKHCRVACA (linker 2-6-10 via TBMB, also called PK123) [3B8], the Ki was 7 nM in assay [1]; 9 nM in assay [2]; 12 nM in assay [3]; 52 nM in assay [6]; 0.95 nM in assay [7].

By Ki is commonly meant the dissociation constant of the complex between target and ligand, obtained from inhibition or displacement.

Values taken from patent US10800813 (Bicycle, dated 2020).
